Reference: the supplement of paper PMC7125110
± gives the standard error. Variants at the floor of the assay were thinned out.

B1: glmS ribozyme (parent)
chain: AUAAAAGCGCCAGAACUACAGAAAUGUAGUUGACGAGGAGGAGGUUUAUCGAAUUUUCGGCGGAUGCCUCCAAA

Variants of: B1
Assay: self-cleavage kobs at 10000 uM GlcN6P; higher = faster cleavage; RNA array
Conditions: with glucosamine-6-phosphate
How it was run: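 kcat and KM were obtained from weighted Michaelis–Menten fits across concentrations of kobs values. Those came from one- or two-exponential decay fits to per-tile medians normalised to baseline and to non-cleaving reference variants. The variants were barcoded ribozymes transcribed in situ by E. coli RNA polymerase on sequenced MiSeq chips and tracked through a hybridised Cy3 probe at 37 °C, with 40 μM to 10 mM glucosamine-6-phosphate in HEPES/KCl/Mg(OAc)2 buffer flowed in.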
In the case of A6C U31C U45A U57G, the “self-cleavage kobs at 10000 uM GlcN6P” value is reported as under 1e-05 s⁻¹. With G44A U45A C58G the “self-cleavage kobs at 10000 uM GlcN6P” value was under 1e-05 s⁻¹. With A36U G51U C68G the “self-cleavage kobs at 10000 uM GlcN6P” value was 4.33e-05 ± 1.7e-05 s⁻¹. In the case of A52C C67A, the “self-cleavage kobs at 10000 uM GlcN6P” value is reported as 2.55e-05 ± 1.1e-05 s⁻¹. U49A C50G G51A C61A G62U was tested, and the “self-cleavage kobs at 10000 uM GlcN6P” value was under 1e-05 s⁻¹. For A39C U55G C70U, the “self-cleavage kobs at 10000 uM GlcN6P” value was 0.000211 ± 4e-05 s⁻¹. In the case of C10G C34A C67G, the “self-cleavage kobs at 10000 uM GlcN6P” value is reported as 0.00066 ± 0.00026 s⁻¹. In the case of A14G G43U U47A C58A C67A, the “self-cleavage kobs at 10000 uM GlcN6P” value is reported as 7.13e-05 ± 1.3e-05 s⁻¹. C16G U47A U56A U65G was tested, and the “self-cleavage kobs at 10000 uM GlcN6P” value was 0.000338 ± 9.1e-05 s⁻¹. With G32C A53G C67G the “self-cleavage kobs at 10000 uM GlcN6P” value was 3.72e-05 ± 1.3e-05 s⁻¹. For C8U C10U G13C C50G G51U A52C C71A, the “self-cleavage kobs at 10000 uM GlcN6P” value was under 1e-05 s⁻¹. With A14U G37C G59C C67U the “self-cleavage kobs at 10000 uM GlcN6P” value was under 1e-05 s⁻¹. A42G U45A U65C was tested, and the “self-cleavage kobs at 10000 uM GlcN6P” value was 0.00105 ± 0.00028 s⁻¹. For G9A G43A U57A U65A U69A C71A, the “self-cleavage kobs at 10000 uM GlcN6P” value was under 1e-05 s⁻¹. In the case of C50U A53U G59C U65A, the “self-cleavage kobs at 10000 uM GlcN6P” value is reported as under 1e-05 s⁻¹. A48G U49G was tested, and the “self-cleavage kobs at 10000 uM GlcN6P” value was 5.7e-05 ± 2.1e-05 s⁻¹. In the case of C10U A42C A52U, the “self-cleavage kobs at 10000 uM GlcN6P” value is reported as under 1e-05 s⁻¹. With A15G A52G C67U C71G the “self-cleavage kobs at 10000 uM GlcN6P” value was 4.89e-05 ± 1.3e-05 s⁻¹. A4U A39G C70A was tested, and the “self-cleavage kobs at 10000 uM GlcN6P” value was 0.000171 ± 4.7e-05 s⁻¹. In the case of U30G G62A C67A, the “self-cleavage kobs at 10000 uM GlcN6P” value is reported as under 1e-05 s⁻¹. U57C C58A C70U was tested, and the “self-cleavage kobs at 10000 uM GlcN6P” value was 3.37e-05 ± 1.7e-05 s⁻¹. U46G U55G G66U was tested, and the “self-cleavage kobs at 10000 uM GlcN6P” value was 0.000444 ± 0.00018 s⁻¹. For A14U A36C A48G C61U, the “self-cleavage kobs at 10000 uM GlcN6P” value was under 1e-05 s⁻¹. With C34U G44U U54A G63C the “self-cleavage kobs at 10000 uM GlcN6P” value was under 1e-05 s⁻¹. A15U C50A G51A A53G was tested, and the “self-cleavage kobs at 10000 uM GlcN6P” value was under 1e-05 s⁻¹. In the case of C11U A15G C58G C68U, the “self-cleavage kobs at 10000 uM GlcN6P” value is reported as 0.000112 ± 2.5e-05 s⁻¹. For G13A G29A G63U, the “self-cleavage kobs at 10000 uM GlcN6P” value was under 1e-05 s⁻¹. In the case of C8G G9U G66C C68G, the “self-cleavage kobs at 10000 uM GlcN6P” value is reported as under 1e-05 s⁻¹. With G37C U54A the “self-cleavage kobs at 10000 uM GlcN6P” value was 4.2e-05 ± 1e-05 s⁻¹. With A12C G26A G41A U54G the “self-cleavage kobs at 10000 uM GlcN6P” value was 0.00044 ± 0.00012 s⁻¹. For A48C C71G, the “self-cleavage kobs at 10000 uM GlcN6P” value was 2.78e-05 ± 8.9e-06 s⁻¹. In the case of A36U G43C U54C U55C G63C C71A, the “self-cleavage kobs at 10000 uM GlcN6P” value is reported as under 1e-05 s⁻¹. In the case of G37C G59U C61G, the “self-cleavage kobs at 10000 uM GlcN6P” value is reported as under 1e-05 s⁻¹. With A42G C58G U69C the “self-cleavage kobs at 10000 uM GlcN6P” value was 0.000133 ± 3.8e-05 s⁻¹. In the case of G7C G9U A14G, the “self-cleavage kobs at 10000 uM GlcN6P” value is reported as under 1e-05 s⁻¹. C10G A39U A48C was tested, and the “self-cleavage kobs at 10000 uM GlcN6P” value was under 1e-05 s⁻¹. In the case of G7A G29C U47G A53G, the “self-cleavage kobs at 10000 uM GlcN6P” value is reported as under 1e-05 s⁻¹. With C10A A14C U30G the “self-cleavage kobs at 10000 uM GlcN6P” value was under 1e-05 s⁻¹. With G9U G41U C58A G60C the “self-cleavage kobs at 10000 uM GlcN6P” value was under 1e-05 s⁻¹. In the case of G9A U65A C67A C70G, the “self-cleavage kobs at 10000 uM GlcN6P” value is reported as 5.56e-05 ± 1.6e-05 s⁻¹. A12G U45A C71U was tested, and the “self-cleavage kobs at 10000 uM GlcN6P” value was 0.00191 ± 0.0004 s⁻¹. With A15G A33C U46G the “self-cleavage kobs at 10000 uM GlcN6P” value was 4.59e-05 ± 1.3e-05 s⁻¹. With A42U A64C C67U the “self-cleavage kobs at 10000 uM GlcN6P” value was under 1e-05 s⁻¹. For A36C U46A C58A, the “self-cleavage kobs at 10000 uM GlcN6P” value was under 1e-05 s⁻¹. With G43U G44U U65G the “self-cleavage kobs at 10000 uM GlcN6P” value was under 1e-05 s⁻¹. In the case of G21U G29C, the “self-cleavage kobs at 10000 uM GlcN6P” value is reported as 0.00256 ± 0.0005 s⁻¹. In the case of A12G C58A C71A, the “self-cleavage kobs at 10000 uM GlcN6P” value is reported as 5.83e-05 ± 1.4e-05 s⁻¹. In the case of A12G G29A G63A, the “self-cleavage kobs at 10000 uM GlcN6P” value is reported as under 1e-05 s⁻¹. For A33U U45A U55C C71U, the “self-cleavage kobs at 10000 uM GlcN6P” value was under 1e-05 s⁻¹. In the case of G13A G43U U45G, the “self-cleavage kobs at 10000 uM GlcN6P” value is reported as 6.53e-05 ± 2.3e-05 s⁻¹. A14G A36C U54A G63U was tested, and the “self-cleavage kobs at 10000 uM GlcN6P” value was under 1e-05 s⁻¹. A15C A33U U47C U57G C68U U69C was tested, and the “self-cleavage kobs at 10000 uM GlcN6P” value was under 1e-05 s⁻¹. With G29U G40A A52C C67A the “self-cleavage kobs at 10000 uM GlcN6P” value was under 1e-05 s⁻¹. With G7A A53C G63A the “self-cleavage kobs at 10000 uM GlcN6P” value was under 1e-05 s⁻¹. With G32A A64U C68U the “self-cleavage kobs at 10000 uM GlcN6P” value was under 1e-05 s⁻¹. With A39G U57A C68U the “self-cleavage kobs at 10000 uM GlcN6P” value was 0.000176 ± 4e-05 s⁻¹. For C8U G9U G37A C67G, the “self-cleavage kobs at 10000 uM GlcN6P” value was under 1e-05 s⁻¹. For G32U U45G U46C C67A, the “self-cleavage kobs at 10000 uM GlcN6P” value was 7.22e-05 ± 2e-05 s⁻¹. With C8A C34A A64G the “self-cleavage kobs at 10000 uM GlcN6P” value was under 1e-05 s⁻¹. With A12U A15U G29A the “self-cleavage kobs at 10000 uM GlcN6P” value was 0.00126 ± 0.00032 s⁻¹. A12C G29C C70U was tested, and the “self-cleavage kobs at 10000 uM GlcN6P” value was 0.00119 ± 0.00031 s⁻¹. With A33C G35A U46G C50U U56G C71A the “self-cleavage kobs at 10000 uM GlcN6P” value was under 1e-05 s⁻¹. For G40C G59C U65G, the “self-cleavage kobs at 10000 uM GlcN6P” value was under 1e-05 s⁻¹. In the case of C8A U56A A64G, the “self-cleavage kobs at 10000 uM GlcN6P” value is reported as under 1e-05 s⁻¹. With G9U G35C A42C the “self-cleavage kobs at 10000 uM GlcN6P” value was under 1e-05 s⁻¹. In the case of C11U G29A A39C, the “self-cleavage kobs at 10000 uM GlcN6P” value is reported as 3.89e-05 ± 1.6e-05 s⁻¹. In the case of A42G C58A C67U, the “self-cleavage kobs at 10000 uM GlcN6P” value is reported as 0.00012 ± 1.9e-05 s⁻¹. For A48U U54C C68U, the “self-cleavage kobs at 10000 uM GlcN6P” value was 9.01e-05 ± 2.8e-05 s⁻¹. G40C U45A U49G was tested, and the “self-cleavage kobs at 10000 uM GlcN6P” value was 5.2e-05 ± 1.9e-05 s⁻¹. With C16A G32U A33U C50G C67U the “self-cleavage kobs at 10000 uM GlcN6P” value was 0.000275 ± 9.8e-05 s⁻¹. With C8G G51U G59U the “self-cleavage kobs at 10000 uM GlcN6P” value was under 1e-05 s⁻¹. With A53C U69C the “self-cleavage kobs at 10000 uM GlcN6P” value was 0.00127 ± 0.00031 s⁻¹. In the case of G7A G41A A53C, the “self-cleavage kobs at 10000 uM GlcN6P” value is reported as under 1e-05 s⁻¹. C11G A14C G43U was tested, and the “self-cleavage kobs at 10000 uM GlcN6P” value was under 1e-05 s⁻¹. For C34U U45A C61U, the “self-cleavage kobs at 10000 uM GlcN6P” value was under 1e-05 s⁻¹. For C11U A36C A39G U45G C61U, the “self-cleavage kobs at 10000 uM GlcN6P” value was under 1e-05 s⁻¹. For G32U U57G, the “self-cleavage kobs at 10000 uM GlcN6P” value was 5.4e-05 ± 1.4e-05 s⁻¹.
